Patent publication US12227570B2, “Anti-CEACAM6 antibodies and methods of use” (Singapore Health Services PTE LTD, priority 2016, dated 2025)

Key:
[1] = target: T1, CEACAM6 (Homo sapiens, UniProt P40199); test: Binding after siRNA knock down of CEACAM6; type: cell-based; details: PC-9 cells; Western blot and flow cytometry
T1 construct: 20 μg of PC-9 membrane protein extract was first denatured; endogenous in cells; host or cells: PC-9 cells
T1 sequence (P40199 35-320): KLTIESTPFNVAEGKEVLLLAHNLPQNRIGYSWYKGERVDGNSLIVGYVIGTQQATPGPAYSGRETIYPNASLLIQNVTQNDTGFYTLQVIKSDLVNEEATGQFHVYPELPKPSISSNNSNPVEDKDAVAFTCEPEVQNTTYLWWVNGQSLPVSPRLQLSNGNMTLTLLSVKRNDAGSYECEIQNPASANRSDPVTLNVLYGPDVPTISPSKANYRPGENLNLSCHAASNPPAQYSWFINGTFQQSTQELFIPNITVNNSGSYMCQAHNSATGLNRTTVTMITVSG

[2] = target: T1, CEACAM6; test: Western blot / flow cytometry binding after PNGase or Tunicamycin treatment; details: for binding to the antigen band after PNGase treatment: Western blot, PC-9 lysate, N-glycans removed
Method: Membrane proteins were extracted from PC-9 cell pellets using the Membrane Protein Extraction Kit (BioVision, USA). Briefly, cell pellets of 5E7 cells were resuspended in 1 mL of Homogenize Buffer and cell membranes broken in a dounce homogenizer. This was transferred into an Eppendorf tube and centrifuged at 700×g for 10 min at 4° C. to remove cell debris. The supernatant was transferred to a new Eppendorf tube and centrifuged at 12,000×g for 30 min at 4° C. to pellet the membrane. The membrane was finally resuspended in 500 μl of 1×Cell Lysis Buffer (Cell Signaling Technology, USA) containing protease inhibitors (Pierce ThermoScientific, USA). The membrane protein solution was clarified with by centrifugation at 15,000×g for 5 min at 4° C., to remove any insoluble proteins. Protein was quantified using the Pierce […] Protein Assay Reagent.
PC-9 membrane protein extracts, or IP products were denatured by in protein loading dye containing SDS at a final concentration of 1%, and heated at 95° C. for 5 min. The sample was then loaded into pre-cast gradient gel (NuPAGE 4-12% gradient gel, Invitrogen), and separated by SDS-PAGE running MOPS Running Buffer (NuPAGE Invitrogen, USA). After gel electrophoresis, the resolved proteins were transferred onto a polyvinylidene fluoride (PVDF) membrane (BioRad, USA) in a transfer buffer containing 20% methanol, 10% Tris-Glycine in DI water at constant voltage of 110V for 90 min.
The membrane was then blocked with 5% milk prepared in PBS/0.1% Tween-20 (PBS-T) for 30 min at room temperature. The membrane was then washed in PBS-T, followed by overnight incubation of GR6A04 at 2 μg/mL in 2.5% milk at 4° C. Subsequently, the membrane was washed in PBS-T, before incubation with goat anti-mouse secondary antibodies horseradish peroxidase-conjugated (1:10000, Dako) for 1 hour at room temperature. […]
PNGase digestion was carried out according to manufacturer's protocol (New England Biolabs). […] Digested proteins were subsequently analysed by Western blotting as described above. […]

[3] = tested on: A549; test: Flow cytometry binding on A549 lung adenocarcinoma; type: cell-based; details: A549 parental, heterogeneous binding
Method: (§1) Cells were harvested as single cell suspensions using trypsin. 1E5 cells were used per sample, and incubated with 100 μl of mAb culture supernatant for 30 min. Cells were then washed with 1% bovine serum albumin in PBS, and further incubated with 100 μl of goat anti-mouse antibody fluorescein isothiocyanate (FITC)-conjugated (1:500, DAKO, Denmark) for 15 min at 4° C. in the dark. Cells were again washed and resuspended in 200 μL of 1% BSA/PBS for analysis on Guava® easy Cyte 8HT Benchtop Flow Cytometer (Merck Millipore, USA). For interrogation of […] binding, cells were fixed with 4% PFA/PBS (Affymetrix, USA) at room temperature for 10 min, washed in PBS, and permeabilised with 0.1% triton/PBS for 5 min at room temperature, before proceeding with incubation with mAb supernatant/primary antibody. For staining with propidium iodide, PI was added to a final concentration of 5 μg/mL for 5 min just prior to analysis by the flow cytometer.

[4] = tested on: NSCLC lines, GR HCC827 clones, breast cancer lines, colorectal cancer lines; test: Flow cytometry binding on other cancer cell lines; type: cell-based
Method: as §1

[5] = tested on: PC-9; test: Mab-ZAP indirect saporin conjugate cell growth inhibition; type: cell-based; details: GR6A04 indirectly conjugated with saporin via anti-mouse antibody; PC-9 sensitive parental line
Method: (§2) Cells were seeded into a black coated 96 well plate (Grenier Bio-one, UK) at a range of density from 1000-5000 cells per well (depending on the cell type used) and 90 μL per well. The plate was then incubated for 24 hours at 37° C. in humidified air with 5% CO2. After 24 hours, 10 μL of mAb or buffer was added to each well and the plate was again placed at 37° C. in humidified air with 5% CO2. 4 days after addition of mAb or buffer, 100 μL of CTG substrate (Promega, Wisconsin, USA) was added to each well. The plate was then left in the dark for 10 minutes, with vigorous shaking. The cell viability of the samples was then quantified using Tecan I-control (Tecan, Switzerland).

[6] = tested on: CL75 GR clone; test: as above; type: cell-based; details: GR6A04 indirectly conjugated with saporin via anti-mouse antibody
Method: as §2

[7] = tested on: PC-9 Gefitinib resistant clones; test: Propidium iodide staining (FL-3) for cytotoxicity of mAb alone; type: cell-based; details: cells incubated with the mAb alone
Method: as §1

B1: GR6A04: mouse IgG1, κ anti-CEACAM6 monoclonal antibody, VH SEQ ID NO:1, VL SEQ ID NO:2, binds N-glycosylated CEACAM6 (antibody, V domains shown)
VH: SGPELVKPGASVKMSCKASGNTFTSYVMHWVKQKPGQGLEWIGYINPYNDGTKYNEKFKGKATLTSDKSSSTAYMELSSLTSEDSAVYYCARSTARATPYFYAMDYWGQGTSVTVSS
VL: DILMTQSPSSLAVTAGEKVTMRCKSSQSLLWSVNQNSYLSWYQLKQGQPPKLLLYGASIRESWVPDRFTGSGSGTDFTLTISNVHVEDLAVYYCQHNHGSFLPYTFGGGTKLEIK
modifications: Isolated antibody fragment
binding after knockdown of CEACAM6 expression [1]: decrease
binding after PNGase and Tunicamycin treatment ([2]; PNGase digestion, Tunicamycin N-glycosylation inhibitor): affected
binding to the antigen band after PNGase treatment [2]: abolished binding
binding to the antigen band after PNGase treatment ([2]; listed as GR 6A04): abolished
GR6A04+ population (positive binding tail) [3]: 15-30%
GR HCC827 clones with binding [4]: 2 of 6
breast cancer lines with reactivity [4]: 3 of 13
colorectal cancer lines with reactivity [4]: 1 of 2
NSCLC lines with partial binding ([4]; A549 and Calu-3 positive): 2 of 4
cell growth inhibited [5]: 43%
cell growth inhibited [6]: 28%
cell cytotoxicity (propidium iodide staining, FL-3) [7]: no apparent cell cytotoxicity
cell cytotoxicity (propidium iodide staining, FL-3) ([7]; listed as GR 6A04): no inherent cytotoxity
